In PMC5670179, “Folding of a bacterial integral outer membrane protein is initiated in the periplasm” (Nature Communications, 2017):

Key:
[1] = molecular target: His10-UpaGΔ2(Y1735am) (E. coli O6:H1 strain CFT073); experiment: SDS-PAGE of unheated (25 °C) against heated (99 °C) samples after Ni-NTA purification; cells radiolabelled, UV irradiated and PK treated; membranes solubilised in 2% DDM, Ni-NTA in 50 mM NaH2PO4 pH 8, 500 mM NaCl, 0.05% DDM; eluate kept at 25 or 99 °C in SDS sample buffer for 5 min
[2] = molecular target: the molecule itself; experiment: SDS- and heat-resistant oligomers on SDS-PAGE after pulse-chase labelling and immunoprecipitation; cells grown in M9 minimal medium at 37 °C, pTrc99a derivatives; TCA precipitation, immunoprecipitation with anti-HA or anti-UpaG antiserum, samples heated to 99 °C for 5 min, 8-16% Tris-glycine gels

Row | Molecule | stoichiometry N [1] | stoichiometry N [2]
1 | His10-UpaGΔ2(Y1735am) (from UniProt A0A0H2VCA1 1609-1778) (domain or fragment) | 3 | 
2 | HA-UpaGΔ2 (domain or fragment, UpaG, trimeric autotransporter adhesin of uropathogenic E. coli O6:H1 strain CFT073; the C-terminal 170 residues (passenger-domain fragment 1609-1689 and beta-domain segment 1689-1778) of the 1778 residue full-length protein; Made with the native UpaG signal peptide (residues 1-53) before the HA tag; the signal peptide is meant to be cleaved on export; Two glycines were inserted between signal …) AGVNATDAVNVSQLKSSEAGGVRYDTKADGSIDYSNITLGGGNSGTTRISNVSAGVNNNDAVNYAQLKQSVQETKQYTDQRMVEMDNKLSKTESKLSGGIASAMAMTGLPQAYTPGASMASIGGGTYNGESAVALGVSMVSANGRWVYKLQGSTNSQGEYSAALGAGIQW |  | 3
